Experimental data: the supplement of paper PMC12042874
± gives the uncertainty stated by the source.

Assay: amyloid nucleation score (Sup35N fusion, yeast selection) (log enrichment); library NNK1; higher = more nucleation; inactive = no reads after selection
In short: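 Random libraries were run with three technical output replicates. In each, psi-negative yeast expressing Sup35N fused to peptides of 20 random codons were induced 24 hours with 100 μM copper sulfate and grown 7 days at 30°C on medium lacking adenine and uracil, and input and output plasmid inserts were Illumina-sequenced. The nucleation score is the DiMSum log enrichment of output over input reads, centred on the mode score of non-aggregating sequences, and sequences under 100 input reads were excluded.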

Question: For CVCMVRYGVRAHR, which amyloid nucleation score is on record?
Answer: The amyloid nucleation score was 0.469 ± 0.64.

Question: With CVDRRV as the substance, how does the amyloid nucleation score read?
Answer: The amyloid nucleation score was 0.203 ± 0.56.

Question: For CVFMRATLQK, which amyloid nucleation score is on record?
Answer: Its amyloid nucleation score is 3.25 ± 0.15.

Question: With CVKASLMMWVQFYIDSY as the substance, how does the amyloid nucleation score read?
Answer: The amyloid nucleation score was “inactive”.

Question: Which amyloid nucleation score does the source give for CVLCDGYFKSERLLNGWVM here?
Answer: Its amyloid nucleation score is -0.641 ± 0.52.

Question: With CVMNLYGGMPHAGRWTGF as the substance, how does the amyloid nucleation score read?
Answer: Its amyloid nucleation score is 4.33 ± 0.11.

Question: For CVSHNVILRK, which amyloid nucleation score is on record?
Answer: Its amyloid nucleation score is 2.4 ± 0.092.

Question: Which amyloid nucleation score does the source give for CVTLCSNPWDQKRFICIYRH here?
Answer: The amyloid nucleation score was -0.021 ± 0.55.

Question: For CVVESMSIIMRRCSLS, which amyloid nucleation score is on record?
Answer: Its amyloid nucleation score is -0.861 ± 0.42.

Question: Which amyloid nucleation score does the source give for CVVFAVKGCAGGWTRFMLDN here?
Answer: The amyloid nucleation score was -0.268 ± 0.4.

Question: Which amyloid nucleation score does the source give for CWASIEVLRRSDYGGFCHSV here?
Answer: The amyloid nucleation score was 0.826 ± 0.6.

Question: For CWNVLNCMHAFRCGPMNQRR, which amyloid nucleation score is on record?
Answer: Its amyloid nucleation score is 0.831 ± 0.58.

Question: With CWPRG as the substance, how does the amyloid nucleation score read?
Answer: The amyloid nucleation score was 0.326 ± 0.55.

Question: Which amyloid nucleation score does the source give for CWTCTSRVEWSPV here?
Answer: Its amyloid nucleation score is -0.374 ± 0.74.

Question: With CWTLSDVLFDNNLFTMNMGP as the substance, how does the amyloid nucleation score read?
Answer: Its amyloid nucleation score is -0.291 ± 0.67.

Question: For CYAFLDWAYVSEG, which amyloid nucleation score is on record?
Answer: Its amyloid nucleation score is 0.114 ± 0.28.

Question: Which amyloid nucleation score does the source give for CYCLNAGVSMADHSVPPRVF here?
Answer: The amyloid nucleation score was 0.912 ± 0.71.

Question: Which amyloid nucleation score does the source give for CYCSEWNWRCNTELDVLFQS here?
Answer: Its amyloid nucleation score is 0.818 ± 0.4.

Question: Which amyloid nucleation score does the source give for CYGGWVYLLRIALCGEDSVI here?
Answer: The amyloid nucleation score was 0.58 ± 0.58.

Question: For CYHQFGV, which amyloid nucleation score is on record?
Answer: Its amyloid nucleation score is “inactive”.

Question: With CYKLGYGFVHFSAIMVNIIS as the substance, how does the amyloid nucleation score read?
Answer: The amyloid nucleation score was -1.22 ± 1.7.

Question: Which amyloid nucleation score does the source give for CYLKGYA here?
Answer: The amyloid nucleation score was 0.853 ± 0.52.

Question: For CYMKNKLSFIM, which amyloid nucleation score is on record?
Answer: The amyloid nucleation score was “inactive”.

Question: Which amyloid nucleation score does the source give for CYRIDGSYYQLSCSYVYVRV here?
Answer: Its amyloid nucleation score is -0.837 ± 1.1.

Question: With CYVLRSRSCLVFLMVYRGRV as the substance, how does the amyloid nucleation score read?
Answer: The amyloid nucleation score was 4.95 ± 0.073.

Question: Which amyloid nucleation score does the source give for DASGNYWGWKLWGDQGERGY here?
Answer: The amyloid nucleation score was “inactive”.

Question: For DASLQWYVDSLKFCWV, which amyloid nucleation score is on record?
Answer: Its amyloid nucleation score is 0.18 ± 0.36.

Question: With DASLVGLQLSHHSILFHCSM as the substance, how does the amyloid nucleation score read?
Answer: Its amyloid nucleation score is 0.021 ± 1.2.

Question: With DCCGFNFYWISPRFHLRECL as the substance, how does the amyloid nucleation score read?
Answer: Its amyloid nucleation score is 0.831 ± 0.27.

Question: For DCMIVGLHHIKVRHSLFVRW, which amyloid nucleation score is on record?
Answer: The amyloid nucleation score was -0.128 ± 0.33.

Question: With DCRFNRGGFNNVR as the substance, how does the amyloid nucleation score read?
Answer: Its amyloid nucleation score is 0.514 ± 0.31.

Question: For DCYNLKQWRSCCDLAVASGG, which amyloid nucleation score is on record?
Answer: Its amyloid nucleation score is 0.24 ± 0.88.

Question: For DDCESFEMRAFM, which amyloid nucleation score is on record?
Answer: Its amyloid nucleation score is 1 ± 0.55.

Question: Which amyloid nucleation score does the source give for DETQKPRVLCMLLLSKSTEN here?
Answer: The amyloid nucleation score was 0.558 ± 0.34.

Question: With DFGFLF as the substance, how does the amyloid nucleation score read?
Answer: Its amyloid nucleation score is 0.851 ± 0.37.

Question: Which amyloid nucleation score does the source give for DFLDNVFVTSECHVN here?
Answer: The amyloid nucleation score was 0.255 ± 0.6.

Question: With DFLMMSVLHHNNVSYS as the substance, how does the amyloid nucleation score read?
Answer: Its amyloid nucleation score is 1.52 ± 0.66.

Question: For DFVMGYYVELWFMYASL, which amyloid nucleation score is on record?
Answer: The amyloid nucleation score was 0.4 ± 0.21.

Question: For DFWSYDDVVFGRC, which amyloid nucleation score is on record?
Answer: The amyloid nucleation score was 1.3 ± 0.6.

Question: With DGHGRYA as the substance, how does the amyloid nucleation score read?
Answer: The amyloid nucleation score was “inactive”.

Question: With DGIRSWENSMVIYGI as the substance, how does the amyloid nucleation score read?
Answer: Its amyloid nucleation score is -0.091 ± 0.4.

Question: For DGKHWTDYLVMY, which amyloid nucleation score is on record?
Answer: The amyloid nucleation score was 1.5 ± 0.47.

Question: With DGLKFGFEINPAVRQ as the substance, how does the amyloid nucleation score read?
Answer: The amyloid nucleation score was 1.11 ± 0.48.

Question: For DGTVGSYCMIFWELYRDNFF, which amyloid nucleation score is on record?
Answer: Its amyloid nucleation score is -0.761 ± 1.2.

Question: For DHASGLVLLCLVWLGLMSLK, which amyloid nucleation score is on record?
Answer: Its amyloid nucleation score is 0.501 ± 0.43.

Question: With DHGHCISPNTSYFMVDWFLK as the substance, how does the amyloid nucleation score read?
Answer: Its amyloid nucleation score is 0.473 ± 0.39.

Question: Which amyloid nucleation score does the source give for DIPYVFLLFLQECDNVFLCH here?
Answer: The amyloid nucleation score was 2.54 ± 0.17.

Question: Which amyloid nucleation score does the source give for DIVRWLCPHRTK here?
Answer: Its amyloid nucleation score is 1.23 ± 0.93.

Question: For DIWDTAAAPGCRCRGNS, which amyloid nucleation score is on record?
Answer: The amyloid nucleation score was -0.363 ± 1.5.

Question: With DLCFCTR as the substance, how does the amyloid nucleation score read?
Answer: The amyloid nucleation score was -1.37 ± 2.7.

Question: For DLCTNYQWFRAAYCYMSRVY, which amyloid nucleation score is on record?
Answer: Its amyloid nucleation score is 1.2 ± 0.98.

Question: Which amyloid nucleation score does the source give for DLDCFRFVLSLGDFMGRCVS here?
Answer: Its amyloid nucleation score is 0.266 ± 0.42.

Question: For DLFDFFRRRYHFRCFVSSIW, which amyloid nucleation score is on record?
Answer: The amyloid nucleation score was -1.52 ± 2.4.

Question: Which amyloid nucleation score does the source give for DLFFIG here?
Answer: Its amyloid nucleation score is 0.188 ± 0.38.

Question: Which amyloid nucleation score does the source give for DLILPRRLSYGYLPVLEGPS here?
Answer: Its amyloid nucleation score is -0.222 ± 0.76.

Question: With DLIRPLSCTRVLSPNFLCS as the substance, how does the amyloid nucleation score read?
Answer: Its amyloid nucleation score is -0.54 ± 0.66.

Question: With DLLETKWIPSLVYKSFESLW as the substance, how does the amyloid nucleation score read?
Answer: Its amyloid nucleation score is -0.137 ± 0.63.

Question: For DLLTWDCLEHDVDMLLVGPN, which amyloid nucleation score is on record?
Answer: Its amyloid nucleation score is 0.152 ± 0.36.

Question: Which amyloid nucleation score does the source give for DLRFCNASYVLWISDFAHAV here?
Answer: The amyloid nucleation score was -0.08 ± 0.41.

Question: For DLRFSTRLGHCISVFMRKIW, which amyloid nucleation score is on record?
Answer: The amyloid nucleation score was “inactive”.

Question: For DLSDLFLYHFVIWTSVNYSY, which amyloid nucleation score is on record?
Answer: Its amyloid nucleation score is -0.562 ± 1.1.

Question: Which amyloid nucleation score does the source give for DLSKFGKHFCLLMHYGFPNH here?
Answer: Its amyloid nucleation score is -0.3 ± 0.28.

Question: Which amyloid nucleation score does the source give for DLSRDAIRSKSEGAVR here?
Answer: Its amyloid nucleation score is -1.24 ± 1.7.

Question: For DLWWGRVRYG, which amyloid nucleation score is on record?
Answer: The amyloid nucleation score was 2.64 ± 0.097.

Question: With DMEQAICEPSLFKIVGDNNL as the substance, how does the amyloid nucleation score read?
Answer: The amyloid nucleation score was -0.186 ± 0.86.

Question: With DMLFPAMRYAVHDVSVSAGN as the substance, how does the amyloid nucleation score read?
Answer: The amyloid nucleation score was 0.582 ± 0.64.

Question: Which amyloid nucleation score does the source give for DMLWKRWTIYYAFYFKAWGY here?
Answer: Its amyloid nucleation score is 1.08 ± 0.39.

Question: For DMQIWFLYDCI, which amyloid nucleation score is on record?
Answer: Its amyloid nucleation score is “inactive”.

Question: With DMVEMVHCSCF as the substance, how does the amyloid nucleation score read?
Answer: The amyloid nucleation score was 1.49 ± 0.21.

Question: With DNFMSAGRLWSDSSADLIIT as the substance, how does the amyloid nucleation score read?
Answer: Its amyloid nucleation score is 0.277 ± 0.79.

Question: Which amyloid nucleation score does the source give for DNQVLCYECRGYWMQTVHVL here?
Answer: Its amyloid nucleation score is 0.069 ± 0.97.

Question: With DNRDYVALSFPRKLKWCYIS as the substance, how does the amyloid nucleation score read?
Answer: Its amyloid nucleation score is -0.834 ± 0.25.

Question: Which amyloid nucleation score does the source give for DNSLYE here?
Answer: Its amyloid nucleation score is -2.11 ± 2.7.

Question: For DPADAPMITRNVGTWAKQVP, which amyloid nucleation score is on record?
Answer: The amyloid nucleation score was 0.324 ± 0.97.

Question: Which amyloid nucleation score does the source give for DPAHLSGWLLCSP here?
Answer: Its amyloid nucleation score is 0.624 ± 0.45.

Question: For DPCSVGFVPPMVLGSLGGDV, which amyloid nucleation score is on record?
Answer: Its amyloid nucleation score is -0.248 ± 0.71.

Question: For DPHYL, which amyloid nucleation score is on record?
Answer: The amyloid nucleation score was “inactive”.

Question: For DPICFYYYFLVN, which amyloid nucleation score is on record?
Answer: The amyloid nucleation score was -2.01 ± 1.5.

Question: For DPLRMILVISFRMVRFIQWP, which amyloid nucleation score is on record?
Answer: Its amyloid nucleation score is 0.072 ± 0.32.

Question: With DPQTGDGVLAMNKWEPYRGL as the substance, how does the amyloid nucleation score read?
Answer: The amyloid nucleation score was 0.697 ± 0.48.

Question: For DQRRGFSMETSYTD, which amyloid nucleation score is on record?
Answer: Its amyloid nucleation score is 1.42 ± 0.71.

Question: For DRAGERMGIR, which amyloid nucleation score is on record?
Answer: The amyloid nucleation score was 0.13 ± 0.28.

Question: Which amyloid nucleation score does the source give for DRFNCKCFVLSKVLCWYGVG here?
Answer: The amyloid nucleation score was 0.851 ± 0.79.

Question: With DRKVGNHLFTRVCDEATMLM as the substance, how does the amyloid nucleation score read?
Answer: Its amyloid nucleation score is 1.75 ± 0.41.

Question: Which amyloid nucleation score does the source give for DRRCLRYSLNCLLFRSIYYN here?
Answer: The amyloid nucleation score was 0.652 ± 1.

Question: Which amyloid nucleation score does the source give for DRRRNCYFIRLWQGLGYIS here?
Answer: The amyloid nucleation score was “inactive”.

Question: For DRSDDGHNESLWAVLMRHKV, which amyloid nucleation score is on record?
Answer: The amyloid nucleation score was 0.315 ± 0.52.
